Assay [1] addresses T1, NLpoly11S.
T1 chain: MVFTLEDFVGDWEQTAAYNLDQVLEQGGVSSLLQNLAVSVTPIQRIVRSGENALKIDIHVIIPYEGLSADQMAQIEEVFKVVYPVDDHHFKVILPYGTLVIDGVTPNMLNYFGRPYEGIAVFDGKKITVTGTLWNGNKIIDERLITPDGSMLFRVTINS
In words: luminescence complementation titration, one-site specific binding fit.

In assay [2] the target is T1, NLpoly11S. In words: luminescence complementation titration, one-site specific binding. As to conditions: chains peptide; modification not given.
In the next assay the target is T2, NLpoly 5P.
T2 chain: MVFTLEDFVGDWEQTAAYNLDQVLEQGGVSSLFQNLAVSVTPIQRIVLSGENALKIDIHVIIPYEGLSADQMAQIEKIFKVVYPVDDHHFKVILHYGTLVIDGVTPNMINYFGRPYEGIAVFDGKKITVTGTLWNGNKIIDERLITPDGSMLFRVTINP
In words: luminescence complementation; HeLa lysate. As to conditions: chains peptide; modification not given.

Assay [3] addresses T1, NLpoly11S. The assay can be described thus: luminescence complementation titration (E. coli lysate NLpoly, synthetic NLpep), one site-specific binding fit.
Assay [4] has as its target T1, NLpoly11S. The assay can be described thus: luminescence complementation titration, one-site specific binding. As to conditions: chains peptide; modification not given.
Substrate in assay [5]: CP Nluc
In words: cell-based or functional assay.

The target in assay [6] is T1, NLpoly11S. In words: luminescence complementation titration, one-site specific binding. To be noted: chains peptide; modification not given.

A value given as a limit tells only on which side of the number the result lay.

As a reminder, the Kd is the constant that tells how readily two partners part at equilibrium. A high value points to weaker binding.

Turning to VTGYRLFKQIL (modifications not checked) [array2.31], in the assay with NLpoly11S [1], the Bmax worked out at 115000 and the Kd was 2990 nM.
Regarding VTGYRLFEKAS (modifications not checked) [array2.20], in the assay with NLpoly11S [1], the Bmax turned out to be 36300 and the Kd came out at 1790 nM.
For VTGYRLFKEIL (modifications not checked) [array2.34] the same measures were 21900 and 4400 nM.
In the assay with NLpoly11S [1], VTGYRLFKQEL (modifications not checked) [array2.33] yielded a Bmax of 8550 and a Kd of 1950 nM.
For VTGYRLFKKAL (modifications not checked) [array2.29] the same measures were 98600 and 276 nM.
For VTGYRLFEEEL (modifications not checked) [array2.54] the same measures were 251000 and 68300 nM.
As for VTGYRLFEKIL [NLpep128], in the assay with NLpoly11S [2], the Kd came to 237 nM.
In the assay with NLpoly11S [1], VTGYRLFEQAS (modifications not checked) [array2.23] yielded a Bmax of 3820 and a dissociation constant (Kd) of 4170 nM.
As for VTGYRLFEKEL (modifications not checked) [array2.48], in the assay with NLpoly11S [1], the Bmax is 10900 and the Kd worked out at 2440 nM.
For VTGYRLFEQIS (modifications not checked) [array2.22] the same measures were 121000 and 10800 nM.
As to VSGWRLFKKISN (modifications not checked) [NLpep80], in the assay with NLpoly 5P, the Kd amounted to 1 nM. In the assay with NLpoly11S [3], the Kd was under 1 nM and the fold improved affinity over NLpolyWT:NLpepWT worked out at 10000 fold.
Molecule VEGYRLFEKIS [NLpep104] registered a Kd in the assay with NLpoly11S [2] of 1740 nM.
In the assay with NLpoly11S [1], VTGYRLFEKES (modifications not checked) [array2.21] gave a Bmax of 8620 and a Kd of 1490 nM.
For the molecule VTGYRLFEKAL (modifications not checked) [array2.47], in the assay with NLpoly11S [1], the Bmax amounted to 34500 and the dissociation constant (Kd) came to 1810 nM.
For VTGYRLFQEIL (modifications not checked) [array2.43] the same measures were 9410 and 17200 nM.
VSGWRLFKKIS (modifications not checked) [NLpep86]: in the assay with NLpoly11S [3], the Kd was under 1 nM and the fold improved affinity over NLpolyWT:NLpepWT was found to be 10000 fold.
As to NVTGYRLFKKISN [NLpep79], the values for the equilibrium dissociation constant (Kd) with NLpoly11S [2] and with NLpoly11S [4] were 20.3 nM and 13.1 nM, respectively.
In the assay with NLpoly11S [1], VTGYRLFEQES (modifications not checked) [array2.24] displayed a Bmax of 1830 and a Kd of 7830 nM.
In the assay with NLpoly11S [1], VTGYRLFEKIL (modifications not checked) [array2.46] returned a Bmax of 219000 and a dissociation constant (Kd) of 1920 nM.
Regarding VTGYRLFQQAL (modifications not checked) [array2.41], in the assay with NLpoly11S [1], the Bmax was found to be 3470 and the Kd came out at 3970 nM.
For VTGYRLFQEAL (modifications not checked) [array2.44] the same measures were 4230 and 16000 nM.
As for VTGYRLFQKIL (modifications not checked) [array2.37], in the assay with NLpoly11S [1], the Bmax was found to be 127000 and the Kd stood at 362 nM.
Turning to VTGYRLFQKAL (modifications not checked) [array2.38], in the assay with NLpoly11S [1], the Bmax turned out to be 72800 and the Kd came out at 975 nM.
Regarding VSGWALFKKIS (modifications not checked) [Ala-162], in assay [5], the inhibition of the luminescence generated by CP Nluc is over 2 logs.
Consider VTGYRLFEQIL (modifications not checked) [array2.49], for which, in the assay with NLpoly11S [1], the Bmax amounted to 99200 and the Kd stood at 124000 nM.
For VTGYRLFQQEL (modifications not checked) [array2.42] the same measures were 14200 and 19000 nM.
For VTGYRLFKEEL (modifications not checked) [array2.36] the same measures were 1720 and 7780 nM.
In the assay with NLpoly11S [1], VTGYRLFQQIL (modifications not checked) [array2.40] returned a Bmax of 66300 and a Kd of 122000 nM.
In the assay with NLpoly11S [1], VTGYRLFEQEL (modifications not checked) [array2.51] showed a Bmax of 46200 and a Kd of 85000 nM.
In the assay with NLpoly11S [1], VTGYRLFQKEL (modifications not checked) [array2.39] registered a Bmax of 33100 and a Kd of 2480 nM.
In the case of VTGYRLFQEEL (modifications not checked) [array2.45], in the assay with NLpoly11S [1], the Bmax was 14300 and the Kd amounted to 35400 nM.
On to NVSGWRLFKKISN [NLpep78], for which the equilibrium dissociation constant (Kd) stood at 2.39 nM with NLpoly11S [2] and 9.56 nM in the assay with NLpoly11S [6].
As to VTGYRLFEKIS (modifications not checked) [array2.19], in the assay with NLpoly11S [1], the Bmax was found to be 123000 and the Kd was found to be 605 nM.
For the molecule VTGYRLFEKIS [NLpep99], the dissociation constant (Kd) with NLpoly11S [2] came out at 266 nM. That is a sub-micromolar value.
For VTGYRLFKQIS (modifications not checked) [array2.4], in the assay with NLpoly11S [1], the Bmax turned out to be 104000 and the Kd was 746 nM.
VTGYRLFQEIS (modifications not checked) [array2.16]: in the assay with NLpoly11S [1], the Bmax was 1320 and the Kd was 2560 nM.
On to VTGYRLFQEES (modifications not checked) [array2.18], for which, in the assay with NLpoly11S [1], the Bmax is 5110 and the Kd came to 67300 nM.
In the assay with NLpoly11S [2], VTGYRLFEKES [NLpep101] displayed a dissociation constant (Kd) of 3120 nM.
Regarding VTGYRLFKKAS (modifications not checked) [array2.2], in the assay with NLpoly11S [1], the Bmax was 104000 and the Kd turned out to be 241 nM.
For VTGYRLFEQAL (modifications not checked) [array2.50] the same measures were 17100 and 40400 nM.
With VSGWQLFKKIS (modifications not checked) [Gln-162], in assay [5], the inhibition of the luminescence generated by CP Nluc was over 1 log.
Take VTGYRLFKKIL (modifications not checked) [array2.28]: in the assay with NLpoly11S [1], the Bmax stood at 141000 and the Kd is 76.6 nM.
For VTGYRLFKQAL (modifications not checked) [array2.32] the same measures were 34900 and 3560 nM.
For VTGYRLFKKEL (modifications not checked) [array2.30] the same measures were 51100 and 671 nM.
For VTGYRLFKKES (modifications not checked) [array2.3] the same measures were 56000 and 773 nM.
In the assay with NLpoly11S [1], VTGYRLFKEAL (modifications not checked) [array2.35] showed a Bmax of 5550 and a Kd of 5150 nM.

Source of the values: US20200292534A1.
